# Measurements taken from patent publication US20240034757A1 (OXFORD UNIVERSITY INNOVATION, published 2024).
# Substitutions are numbered along the chain they refer to. Read-outs that look alike come from different tables or passages of the source.
# B1: CCL18_HUMAN (ligand)
# chain: AQVGTNKELCCLVYTSWQIPQKFIVDYSETSPQCPKPGVILLTKRGRQICADPNKKWVQKYISDLKLNA
# B2: CCL17_HUMAN (ligand)
# chain: ARGTNVGRECCLEYFKGAIPLRKLKTWYQTSEDCSRDAIVFVTVQGRAICSDPNNKRVKNAVKYLQSLERS
# B3: P1095_IXORI (other)
# chain: HSPVAGSEVQKLTSDPNDDIDVSYCGMNCTVVNGKSDECSENCKCLHEGDDPKGICVAITYFGDWGDPNDDPKINEATPQTQIFEKKRK
# B4: CCL1_HUMAN (ligand)
# chain: KSMQVPFSRCCFSFAEQEIPLRAILCYRNTSSICSNEGLIFKLKRGKEACALDTVGWVQRHRKMLRHCPSKRK
# B5: P1096_IXORI (other)
# chain: HTTVTGSVEGKPNNPNEDIEVSYCRMNCTVENGVSSACSGDCVCVHRDNEPNGICVEITYFGDFGDPSQDPSIDEAAPRESVSKRRSNGES
# B6: P1134_IXORI (other)
# chain: NEEVFTVEYCGMNCTQKSDGTWTECSGKNKDCRCYHESDAREGLCLSTEYTDFSQFETPSNSDLEAATPRPRKTLYPVRNPHGPKTRGLGYDKRILRDRVKFLI
# B7: CCL22_HUMAN (ligand)
# chain: GPYGANMEDSVCCRDYVRYRLPLRVVKHFYWTSDSCPRPGVVLLTFRDKEICADPRVPWVKMILNKLSQ
# B8: P1132_IXORI (other)
# chain: LSDEDELFSVEYCGTNCTKQDTGSWTTCSGNCTCYHEDGKKVGLCLSTEYTDFTKFPKPTSEEIANARPLPKREKTLN
# B9: P458_IXORI (other)
# chain: GSKQPGAAGSSSDSVEAVFCPTNCTKGTNGAWSGCSDDCICVHVGENTEGSCMKFSGDYDYPTPEA
# B10: P1100_IXORI (other)
# chain: GSKGSSASQSSDNSVVAKFCDTNCTINEGGKWTECKGGCFCVHVGNETVGRCMKLDGDYDYPSPKPEE
# B11: P1166_IXORI (other)
# chain: GPETKEDKKSDVYELFTVEYCGTNCTLLTNGRWTACTGKKGTCRCYHESGEKVGLCLSTEYTDFSEYPNPKSSEIDAAAPLPRETH
# B12: CCL5_HUMAN (ligand)
# chain: SPYSSDTTPCCFAYIARPLPRAHIKEYFYTSGKCSNPAVVFVTRKNRQVCANPEKKWVREYINSLEMS
# B13: CCL24_HUMAN (ligand)
# chain: VVIPSPCCMFFVSKRIPENRVVSYQLSSRSTCLKAGVIFTTKKGQQFCGDPKQEWVQRYMKNLDAKQKKASPRARAVA
# B14: CCL27_HUMAN (ligand)
# chain: FLLPPSTACCTQLYRKPLSDKLLRKVIQVELQEADGDCHLQAFVLHLAQRSICIHPQNPSLSQWFEHQERKLHGTLPKLNFGMLRKMG
# B15: CCL19_HUMAN (ligand)
# chain: GTNDAEDCCLSVTQKPIPGYIVRNFHYLLIKDGCRVPAVVFTTLRGRQLCAPPDQPWVERIIQRLQRTSAKMKRRSS
# B16: P1124_IXORI (other)
# chain: DSKGTSDSQDSTKSIKVDFCETNCTKTDGGWTGCTGDCICVSVGDSIEGRCMDFG
# Tests used:
# P1243_AMBAM [1] = biological target: T1, P1243_AMBAM (Amblyomma americanum, UniProt A0A0C9S461 26-123); test: BLI
# T1 sequence: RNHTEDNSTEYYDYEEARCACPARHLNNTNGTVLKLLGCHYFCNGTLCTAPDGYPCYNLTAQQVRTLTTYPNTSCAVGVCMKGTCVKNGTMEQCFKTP
# P1181_AMBMA = biological target: T2, P1181_AMBMA (Amblyomma maculatum, UniProt G3MIX6 26-115); test: BLI
# T2 sequence: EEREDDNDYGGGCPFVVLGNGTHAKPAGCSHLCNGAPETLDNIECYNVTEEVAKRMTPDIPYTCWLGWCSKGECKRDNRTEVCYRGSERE
# P974_AMBCA = biological target: T3, P974_AMBCA (Amblyomma cajennense, UniProt A0A023FDY8 22-118); test: BLI
# T3 sequence: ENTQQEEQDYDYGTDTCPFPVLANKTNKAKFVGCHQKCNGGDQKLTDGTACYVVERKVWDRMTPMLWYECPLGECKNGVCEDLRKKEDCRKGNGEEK
# P1182_AMBMA = biological target: T4, P1182_AMBMA (Amblyomma maculatum, UniProt G3MJ83 27-115); test: BLI
# T4 sequence: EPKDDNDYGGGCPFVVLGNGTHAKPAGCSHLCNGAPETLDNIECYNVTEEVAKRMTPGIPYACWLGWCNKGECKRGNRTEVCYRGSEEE
# P467_RHIPU = biological target: T5, P467_RHIPU (Rhipicephalus pulchellus, UniProt L7M8Z8 22-127); test: BLI
# T5 sequence: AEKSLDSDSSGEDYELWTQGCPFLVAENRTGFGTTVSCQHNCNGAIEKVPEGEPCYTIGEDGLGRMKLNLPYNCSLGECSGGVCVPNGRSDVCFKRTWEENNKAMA
# P1180_AMBTR = biological target: T6, P1180_AMBTR (Amblyomma triste, UniProt A0A023G6B6 26-116); test: BLI
# T6 sequence: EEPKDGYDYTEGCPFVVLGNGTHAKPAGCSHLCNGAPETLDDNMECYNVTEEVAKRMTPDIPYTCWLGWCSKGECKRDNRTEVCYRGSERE
# P1243_AMBAM [2] = biological target: T1, P1243_AMBAM; test: BLI; remark: listed apart in the source
# P991_AMBCA = biological target: T7, P991_AMBCA (Amblyomma cajennense, UniProt A0A023FFD0 29-136); test: BLI
# T7 sequence: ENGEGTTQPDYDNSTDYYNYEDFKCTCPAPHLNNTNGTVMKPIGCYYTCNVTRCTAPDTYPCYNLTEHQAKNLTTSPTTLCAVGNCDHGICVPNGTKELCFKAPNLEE
# P546_AMBCA = biological target: T8, P546_AMBCA (Amblyomma cajennense, UniProt A0A023FBW7 22-118); test: BLI
# T8 sequence: T3 sequence with Q8E, E69S, D88E
# P985_AMBPA = biological target: T9, P985_AMBPA (Amblyomma parvum, UniProt A0A023FT45 25-132); test: BLI
# T9 sequence: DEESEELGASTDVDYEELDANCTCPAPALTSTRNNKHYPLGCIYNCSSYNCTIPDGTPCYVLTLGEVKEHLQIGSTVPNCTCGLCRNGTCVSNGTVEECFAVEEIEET
# CXCL9_HUMAN = biological target: T10, CXCL9_HUMAN (human, UniProt Q07325 23-125); test: BLI
# T10 sequence: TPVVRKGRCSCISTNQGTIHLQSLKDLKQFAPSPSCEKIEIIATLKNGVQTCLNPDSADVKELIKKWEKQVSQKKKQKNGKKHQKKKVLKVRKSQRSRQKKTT
# CXCL12_HUMAN = CXCL12_HUMAN (human, UniProt P48061 22-89); test: BLI
# CXCL12_HUMAN, sequence (P48061 22-89 limits assumed): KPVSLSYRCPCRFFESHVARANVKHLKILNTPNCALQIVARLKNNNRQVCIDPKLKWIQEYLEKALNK
# CXCL1_HUMAN = biological target: T11, CXCL1_HUMAN (human, UniProt P09341 35-107); test: yeast surface display FACS re-test; further: test concentration or dose not given here
# T11 sequence: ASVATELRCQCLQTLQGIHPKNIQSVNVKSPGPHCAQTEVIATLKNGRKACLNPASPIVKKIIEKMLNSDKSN
# CXCL13_HUMAN = biological target: T12, CXCL13_HUMAN (human, UniProt O43927 23-109); test: BLI
# T12 sequence: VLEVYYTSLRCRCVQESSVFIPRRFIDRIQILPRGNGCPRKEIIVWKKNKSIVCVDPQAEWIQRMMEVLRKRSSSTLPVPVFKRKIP
# CXCL8_HUMAN = biological target: T13, CXCL8_HUMAN (human, UniProt P10145 28-99); test: BLI [Cont.]
# T13 sequence: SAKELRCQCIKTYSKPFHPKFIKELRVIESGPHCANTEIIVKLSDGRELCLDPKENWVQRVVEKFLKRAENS
# CXCL4_HUMAN = biological target: T14, CXCL4_HUMAN (human, UniProt P02776 32-101); test: BLI [Cont.]
# T14 sequence: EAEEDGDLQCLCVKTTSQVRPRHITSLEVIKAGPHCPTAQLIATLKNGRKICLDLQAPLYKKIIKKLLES
# CXCL7_HUMAN = biological target: T15, CXCL7_HUMAN (human, UniProt P02775 59-128); test: BLI [Cont.]
# T15 sequence: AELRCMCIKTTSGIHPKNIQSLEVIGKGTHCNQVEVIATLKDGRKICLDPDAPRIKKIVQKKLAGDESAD
# CXCL14_HUMAN = biological target: T16, CXCL14_HUMAN (human, UniProt O95715 35-111); test: BLI
# T16 sequence: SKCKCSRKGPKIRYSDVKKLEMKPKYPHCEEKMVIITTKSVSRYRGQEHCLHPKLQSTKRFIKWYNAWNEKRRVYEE
# CXCL11_HUMAN = biological target: T17, CXCL11_HUMAN (human, UniProt O14625 22-94); test: BLI
# T17 sequence: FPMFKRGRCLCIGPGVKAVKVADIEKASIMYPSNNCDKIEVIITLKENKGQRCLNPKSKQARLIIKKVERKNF
# CXCL10_HUMAN = biological target: T18, CXCL10_HUMAN (human, UniProt P02778 22-98); test: BLI
# T18 sequence: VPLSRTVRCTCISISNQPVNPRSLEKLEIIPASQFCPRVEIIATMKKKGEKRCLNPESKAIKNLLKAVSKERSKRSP
binder,measurement,setting,value
B1,Kd,P1243_AMBAM [1],0.005 nM
same,Kd,P1181_AMBMA,10 nM
same,Kd,P974_AMBCA,17 nM
same,Kd,P1182_AMBMA,33 nM
same,Kd,P467_RHIPU,16.6 nM
same,Kd,P1180_AMBTR,5.8 nM
same,Kd,P1243_AMBAM [2],0.00501 nM
same,Kd,P991_AMBCA,0.209 nM
same,Kd,P546_AMBCA,16 nM
same,Kd,P985_AMBPA,430 nM
B2,Kd,P1243_AMBAM [1],0.734 nM
same,Kd,P974_AMBCA,70.6 nM
same,Kd,P1243_AMBAM [2],0.734 nM
same,Kd,P991_AMBCA,7.66 nM
same,Kd,P546_AMBCA,70 nM
B3,binding result,CXCL9_HUMAN,no binding (tested: 300 nM)
B4,Kd,P1243_AMBAM [1],21.2 nM
same,Kd,P974_AMBCA,70.5 nM
same,Kd,P467_RHIPU,53.4 nM
same,Kd,P1243_AMBAM [2],21.3 nM
same,Kd,P546_AMBCA,160 nM
same,Kd,P985_AMBPA,8.3 nM
B5,binding result,CXCL9_HUMAN,no binding (tested: 300 nM)
same,binding result,CXCL12_HUMAN,no binding (tested: 300 nM)
B6,binding result,CXCL12_HUMAN,no binding (tested: 300 nM)
B7,Kd,P1243_AMBAM [1],22.3 nM
B8,% cells over threshold fluorescence,CXCL1_HUMAN,68%
same,binding result,CXCL9_HUMAN,no binding (tested: 300 nM)
same,binding result,CXCL13_HUMAN,no binding (tested: 300 nM)
same,binding result,CXCL12_HUMAN,no binding (tested: 300 nM)
B9,binding result,CXCL8_HUMAN,no binding (tested: 300 nM)
same,binding result,CXCL4_HUMAN,no binding (tested: 300 nM)
same,binding result,CXCL7_HUMAN,no binding (tested: 300 nM)
same,binding result,CXCL14_HUMAN,no binding (tested: 300 nM)
same,binding result,CXCL11_HUMAN,no binding (tested: 300 nM)
same,binding result,CXCL10_HUMAN,no binding (tested: 300 nM)
same,binding result,CXCL12_HUMAN,no binding (tested: 300 nM)
B10,binding result,CXCL8_HUMAN,no binding (tested: 300 nM)
same,binding result,CXCL4_HUMAN,no binding (tested: 300 nM)
same,binding result,CXCL7_HUMAN,no binding (tested: 300 nM)
same,binding result,CXCL14_HUMAN,no binding (tested: 300 nM)
same,binding result,CXCL12_HUMAN,no binding (tested: 300 nM)
B11,% cells over threshold fluorescence,CXCL1_HUMAN,63%
same,binding result,CXCL9_HUMAN,no binding (tested: 300 nM)
same,binding result,CXCL13_HUMAN,no binding (tested: 300 nM)
same,binding result,CXCL12_HUMAN,no binding (tested: 300 nM)
B12,Kd,P1243_AMBAM [1],1.74 nM
same,Kd,P467_RHIPU,7.67 nM
same,Kd,P1243_AMBAM [2],1.74 nM
same,Kd,P991_AMBCA,1.47 nM
same,Kd,P985_AMBPA,3.5 nM
B13,Kd,P1243_AMBAM [1],7.39 nM
B14,Kd,P1243_AMBAM [1],15.1 nM
same,Kd,P1243_AMBAM [2],15.1 nM
B15,Kd,P1243_AMBAM [1],0.592 nM
same,Kd,P1243_AMBAM [2],0.592 nM
same,Kd,P991_AMBCA,14.4 nM
B16,binding result,CXCL8_HUMAN,no binding (tested: 300 nM)
same,binding result,CXCL4_HUMAN,no binding (tested: 300 nM)
same,binding result,CXCL7_HUMAN,no binding (tested: 300 nM)
same,binding result,CXCL14_HUMAN,no binding (tested: 300 nM)
same,binding result,CXCL11_HUMAN,no binding (tested: 300 nM)
same,binding result,CXCL10_HUMAN,no binding (tested: 300 nM)
same,Kd,CXCL12_HUMAN,212 nM
